Assay results: publication PMC6131520

Biological target: 3D8 IgG-N434D mutant (mouse | human)
Sequence (heavy, as listed by the source, chain 1 of 2): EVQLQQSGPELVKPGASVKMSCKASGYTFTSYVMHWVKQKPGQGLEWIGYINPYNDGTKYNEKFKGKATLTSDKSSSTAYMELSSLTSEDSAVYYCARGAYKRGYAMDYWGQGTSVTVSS
Sequence (light, as listed by the source, chain 2 of 2): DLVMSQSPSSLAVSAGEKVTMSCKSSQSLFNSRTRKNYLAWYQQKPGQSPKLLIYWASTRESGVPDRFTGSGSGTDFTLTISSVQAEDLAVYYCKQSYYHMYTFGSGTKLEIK

secretion of IL-8 and TNF-α by THP-1 cells treated with 5 μM IgG for 6 h (ELISA), against cells treated with wt 3D8 IgG: 40 % higher
Substance: tripartite motif-containing 21 (TRIM21) (from UniProt P19474 1-475) (natural protein)
